In publication PMC3526836 one finds Kd data, which are given here for three molecules.

The term Kd denotes a measure of binding affinity in units of concentration. Lower therefore signals a tighter complex.

B1: NHERF1 PDZ1 domain (N-terminal PDZ domain of NHERF1/EBP50), wild type (domain or fragment)
chain: LPRLCCLEKGPNGYGFHLHGEKGKLGQYIRLVEPGSPAEKAGLLAGDRLVEVNGENVEKETHQQVVSRIRAALNAVRLLVVDPETDEQL
B2: NHERF1 PDZ1 domain Y38A/R40A (domain or fragment)
chain: LPRLCCLEKGPNGYGFHLHGEKGKLGQAIALVEPGSPAEKAGLLAGDRLVEVNGENVEKETHQQVVSRIRAALNAVRLLVVDPETDEQL
B3: NHERF1 PDZ1 domain K32A/K34A (domain or fragment)
chain: LPRLCCLEKGPNGYGFHLHGEAGALGQYIRLVEPGSPAEKAGLLAGDRLVEVNGENVEKETHQQVVSRIRAALNAVRLLVVDPETDEQL

The experiment deals with C-terminal peptide of cystic fibrosis transmembrane conductance regulator (CFTR), F-Ahx-VQDTLR. Put plainly: fluorescence polarisation. (Fluorescence polarisation rises when a labelled molecule tumbles more slowly, as on binding a larger partner.)
In turn, B1 had a dissociation constant Kd of 13 µM.

Molecule B2 showed a Kd of 14 µM. The molecule B3 came in with a Kd of 13 µM.
